In patent US20260265379A1 (IMCHECK THERAPEUTICS, published 2026):

B1: bsAb048 (bispecific antibody)
heavy 1: EIVLTQSPGTLSLSPGERATLSCRASQRVSSSYLAWYQQKPGQAPRLLIYDASSRATGIPDRFSGSGSGTDFTLTISRLEPEDFAVYYCQQYGSLPWTFGQGTKVEIKGGGGSGGGGSGGGGSGGGGSEVQLVESGGGLVQPGGSLRLSCAASGFTFSRYWMSWVRQAPGKGLEWVANIKQDGSEKYYVDSVKGRFTISRDNAKNSLYLQMNSLRAEDTAVYYCAREGGWFGELAFDYWGQGTLVTVSSGGGGSGGGGSGGGGSGGGGSQVQLVQSGAEVKKPGASVKLSCKASGYIFTRYYMYWVKQRPGQGLEWIGEINPNNGGTKFNEKFKNRATLTVDKSISTAYMELSRLRSDDTAVYYCSREDDYDGTPFAMDYWGQGTLVTVSS
heavy 2: QVQLVQSGAEVKKPGASVKLSCKASGYIFTRYYMYWVKQRPGQGLEWIGEINPNNGGTKFNEKFKNRATLTVDKSISTAYMELSRLRSDDTAVYYCSREDDYDGTPFAMDYWGQGTLVTVSS
light: not shown
notes: IgG anti-BTN3A, one scFv anti-PD-L1; not shown: IgG1 CH1-hinge-CH2-CH3
B2: bsAb050 (bispecific antibody)
heavy 1: EVQLVESGGGLVQPGGSLRLSCAASGFTFSRYWMSWVRQAPGKGLEWVANIKQDGSEKYYVDSVKGRFTISRDNAKNSLYLQMNSLRAEDTAVYYCAREGGWFGELAFDYWGQGTLVTVSSGGGGSGGGGSGGGGSGGGGSEIVLTQSPGTLSLSPGERATLSCRASQRVSSSYLAWYQQKPGQAPRLLIYDASSRATGIPDRFSGSGSGTDFTLTISRLEPEDFAVYYCQQYGSLPWTFGQGTKVEIKGGGGSGGGGSGGGGSGGGGSQVQLVQSGAEVKKPGASVKLSCKASGYIFTRYYMYWVKQRPGQGLEWIGEINPNNGGTKFNEKFKNRATLTVDKSISTAYMELSRLRSDDTAVYYCSREDDYDGTPFAMDYWGQGTLVTVSS
heavy 2: B1 heavy 2
light: not shown
notes: as for B1
B3: bsAb003 (bispecific antibody, human IgG1, kappa)
heavy: QVQLVQSGAEVKKPGASVKLSCKASGYIFTRYYMYWVKQRPGQGLEWIGEINPNNGGTKFNEKFKNRATLTVDKSISTAYMELSRLRSDDTAVYYCSREDDYDGTPFAMDYWGQGTLVTVSSASTKGPSVFPLAPSSKSTSGGTAALGCLVKDYFPEPVTVSWNSGALTSGVHTFPAVLQSSGLYSLSSVVTVPSSSLGTQTYICNVNHKPSNTKVDKRVEPKSCDKTHTCPPCPAPEFEGGPSVFLFPPKPKDTLMISRTPEVTCVVVDVSHEDPEVKFNWYVDGVEVHNAKTKPREEQYNSTYRVVSVLTVLHQDWLNGKEYKCKVSNKALPASIEKTISKAKGQPREPQVYTLPPSREEMTKNQVSLTCLVKGFYPSDIAVEWESNGQPENNYKTTPPVLDSDGSFFLYSKLTVDKSRWQQGNVFSCSVMHEALHNHYTQKSLSLSPGGGGGSGGGGSGGGGSGGGGSEVQLVESGGGLVQPGGSLRLSCAASGFTFSRYWMSWVRQAPGKGLEWVANIKQDGSEKYYVDSVKGRFTISRDNAKNSLYLQMNSLRAEDTAVYYCAREGGWFGELAFDYWGQGTLVTVSSGGGGSGGGGSGGGGSGGGGSEIVLTQSPGTLSLSPGERATLSCRASQRVSSSYLAWYQQKPGQAPRLLIYDASSRATGIPDRFSGSGSGTDFTLTISRLEPEDFAVYYCQQYGSLPWTFGQGTKVEIK
light: not shown
notes: IgG anti-BTN3A, scFv anti-PD-L1 (VH-VL) at heavy chain C-terminus

How the values were obtained:
[1] = molecular target: T1, PD-L1 at the surface of transduced cells (UniProt Q9NZQ7 19-290, limits assumed); assay: flow cytometry, CHO-PD-L1 cells
T1 construct: whole, on cells; CHO-PD-L1 cells in flow cytometry, Raji-PD-L1 cells in the reporter assay; also called CHO-PD-L1; Raji-PD-L1

[2] = molecular target: T1, PD-L1 at the surface of transduced cells; assay: cell-based or functional assay
recombinant human BTN3A1 = molecular target: T2, recombinant human BTN3A1 (human, UniProt O00481 30-254); assay: SPR
T2 construct: Soluble form of the antigen used in SPR; also called rhBTN3A1; recombinant BTN3A1 protein
Method: SPR measures the interactions between two or more biomolecules. In capture kinetics analysis, an antibody is immobilized onto a gold-plated prism. The immobilized antibody is referred to as the ligand. An injection of antigen, referred to as the analyte, is carried out, often as a concentration series. The captured analytes are removed from the sensor chip surface using a regenerating agent, for example a low pH or high ionic strength solution. If investigating binding to several analytes, the antibodies are recaptured from solution before each analyte titration series. The instrument records the changes in refractive indexes (due to the accumulation or depletion of mass) in time and plots the results as sensorgrams.
Affinity measurements with respect to BTN3A, PD-1 and PD-L1 were performed by SPR technology, for instance in a Carterra LSA Platform instrument using a soluble form of the antigen as the analyte and the antibody as the ligand. Binding was also assessed through in cellulo binding assays, on cell lines (e.g. HEK293T cells) genetically modified to express the targets of interest or genetically modified to extinct target expression.
The 69 produced bsAbs and control mAbs were also evaluated for their binding affinity to recombinant proteins by SPR assays. The equilibrium dissociation constant (KD) was then calculated for constructs showing detectable binding.

[3] = molecular target: T3, BTN3A1 at the surface of HEK-BTN3A1 cells (human, UniProt O00481 30-513); assay: flow cytometry, HEK-BTN3A1 cells
T3 construct: HEK 293T BTN2A/BTN3A KO cells transduced with a BTN3A1 expressing vector
T3 sequence (O00481 30-513 limits assumed): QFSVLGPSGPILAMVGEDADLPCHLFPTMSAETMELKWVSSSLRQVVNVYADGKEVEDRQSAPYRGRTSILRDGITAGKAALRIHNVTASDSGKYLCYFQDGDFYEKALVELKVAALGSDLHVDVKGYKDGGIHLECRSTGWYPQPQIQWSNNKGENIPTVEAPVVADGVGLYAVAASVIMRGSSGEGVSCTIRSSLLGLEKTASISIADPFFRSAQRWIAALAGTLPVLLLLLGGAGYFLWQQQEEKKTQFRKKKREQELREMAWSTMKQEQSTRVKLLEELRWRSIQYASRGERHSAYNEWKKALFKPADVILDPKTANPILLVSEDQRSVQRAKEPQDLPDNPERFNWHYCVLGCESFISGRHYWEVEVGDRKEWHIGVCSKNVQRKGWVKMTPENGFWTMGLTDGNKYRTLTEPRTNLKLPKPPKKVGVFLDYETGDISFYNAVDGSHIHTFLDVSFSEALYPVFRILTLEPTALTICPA

T2 sequence (O00481 30-254 limits assumed): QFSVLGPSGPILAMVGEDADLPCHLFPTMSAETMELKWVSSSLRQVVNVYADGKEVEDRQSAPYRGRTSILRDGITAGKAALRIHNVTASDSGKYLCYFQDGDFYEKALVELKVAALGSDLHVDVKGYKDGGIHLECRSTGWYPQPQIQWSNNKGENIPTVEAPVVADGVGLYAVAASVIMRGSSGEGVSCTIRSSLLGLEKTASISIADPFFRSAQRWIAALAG
T1 sequence (Q9NZQ7 19-290 limits assumed): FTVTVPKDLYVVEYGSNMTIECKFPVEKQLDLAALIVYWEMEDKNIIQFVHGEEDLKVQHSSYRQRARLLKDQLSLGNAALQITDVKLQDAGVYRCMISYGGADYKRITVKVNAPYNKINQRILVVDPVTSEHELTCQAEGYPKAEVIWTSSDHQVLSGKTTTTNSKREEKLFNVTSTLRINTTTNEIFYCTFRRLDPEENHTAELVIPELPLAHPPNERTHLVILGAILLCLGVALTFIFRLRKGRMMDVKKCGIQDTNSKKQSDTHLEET

Row | Binder | MFI at 10 nM [1] [MFI] | MFI at 100 nM [1] [MFI] | Jurkat-PD-1 activation at 10 nM [2] | Jurkat-PD-1 activation at 100 nM [2] | Kd (recombinant human BTN3A1) [nM] | MFI at 10 nM [3] [MFI] | MFI at 100 nM [3] [MFI]
1 | B1 | 1.18e+06 | 1.36e+06 | 7.4 fold-change to medium | 8.9 fold-change to medium | 0.08 | 592000 | 1.02e+06
2 | B2 | 1.18e+06 | 1.32e+06 | 6.9 fold-change to medium | 7.8 fold-change to medium | 0.08 | 535000 | 1.2e+06
3 | B3 | 722000 | – | 8.5 fold-change to medium | 6.9 fold-change to medium | 0.073 | 500000 | 950000
